Reference: the DeepSol protein solubility set

Assay: soluble on expression in E. coli; label from the status in PepcDB or PDB records

Sequence | soluble on expression in E. coli
MLVEDSGHHLPESADIENALDLLLKAQLERAFGPELAEHFWAARQPRTLDERLAFIRKCWIGVFKDSPLSTFGLERLEQLERLCRSKRRGRELSAAEHHQFAEELARLWEQVQRLLPRAAPETSYASSASAGGVHSGDAHTPATLSDAESAHAAPEAMRIEAPATSARSASGCMARVSSDVAAAATNVSLVVLDGENIAWAHGQNAVFSPKGIAIAVDFFRKRGYRCVVFLPDYRRKRADLPTVSASDALVFVPAGEYDDTFALGYAVGHDAILVTNDLLQDHLDQFYPDEGEAREALRKWLGSHRCSFTFVGDEFLPNPHFFLP | not soluble
MKKWLLAAGLGLALATSAQAADKIAIVNMGSLFQQVAQKTGVSNTLENEFKGRASELQRMETDLQAKMKKLQSMKAGSDRTKLEKDVMAQRQTFAQKAQAFEQDRARRSNEERGKLVTRIQTAVKSVANSQDIDLVVDANAVAYNSSDVKDITADVLKQVK | soluble
TPLSRSERIELQSLLSARQYDAGAPDGIIGANTRKAIRSAQQSFGWPADGYPTHELLEALRKPVGQ | not soluble
MTYGPESLSNQELLAILLRTGTKKEHVLNLSIKILNGLDSLADFRSLSLEELQEIEGIGQVRSVEIKAMLELSKRINQAEYNFKERILSSERLAKIMMSELGDKRQEHLIAIYLDTQNRVIKKQVIFIGSVRRSVAEPREILHYACKSMATSLIIVHNHPSGSTYPSENDLRFTEKIKRSCDDLGIVFLDHIIVGKKEYYSFREETDLV | not soluble
MNIQKMYTAVDVHVNGEAFRVMKDVPCKYYYSLEQLNEQFSGELAEEMKLLLNEPRGFIGLNGCIVVPSIHNEVDAAVLFFNHEGSIPLHYGGIVAVITMLLESGYLKKRESNQYKIETLSGIFLVHAYVENDEVISVSFESKLCYLIEENLQVGNVSYSLIQADKVYAVVEKGAYSPEIRVENISELKRWGEATLQAIQKQSLIKRLILVDPSQKEKNHIKSITFHEDNFIVRSPGFVSTIVSYVHALFKNDYMADKPFKNESIFNSFITVEKVKKEELGYIFRFESRGFITGMQTFLLDPTDPFPAGFLLKLEHHHHHH | not soluble
MGHHHHHHSHMTVHIKVYSDYVCPFCFVGKAAFEEAIKGKDVEVEWMPFELRPSPSPQLDPVNDPSKQYMWQTSIQPMAEKLGVEINFPNVSPHPYTDLAFEGFHFAKEYNKGHEYNTRVFQAFFQEDQNIGDIDILTKLAEEVGLDGASFKSALETRTYQDVQRQALKHAYEEADITAVPTFIIGDTVIPGAAGKDVFEKAISDEQKKK | not soluble
GPGSMEARGNVDGEKFRSINTLRTRFPALTVSDARALLERHNWNVAIAGAEAERGERQRTKADSANYFVGGGDKGSGQQVMAPSGESVSDRSGEIASGSGVHSMIDRIFRKAEVEGAKASGGDGGSGVEDNEPRAFYGRGQRLGYTANPSPYVASTLRAERSVCITVYRDGFEVDSNGFVPLNSDEGRQFVEAMDKGYVPPSLAAKYPNTDLTVNLRDCLQVDYVPPSYIAFQGDGHRLAAPSSTAASSAAPANAQASPATAGRSGTPAYDPSRTVEVRSDEATSFVVLLNTRGERRQVQVNPERHTVDDLYSLAHAYQPELQNFILVERGMPPRRLEASTRSQTIAQAKLSRAVVALQQM | soluble
MSFSENRRIALVTLVVDNYDRAKAFYCDVLGFECLSDKPLDDGKRWVVVKPQGAEGGALLLAEADGEQQRLAIGNQTGGRVGFFLHTDDFARDYETMIARGVHFLEEPRHEVYGSVAVFADPYGNRWDLLQPRG | not soluble
MGSDKIHHHHHHMNADDAYKPIQRATLSEASWRILRIAQSVELRHPVSHETALAIWGVELPADSDCSVVSLRSSQGGYAGTDVDYGWSGESPAFGHSEHSIRLGQDFPDSDFQYFPDSQAVSRNQIPGLRQSASQPSQFPQSPAKLHTVAQSPARRGRVKKSTSVSADVTVHVWKGLSARHVREVAGVPVLMPVPAWSLAAGRWGIQDIVMVAESLIRHRFATRKGLIEFVKTESVPYRSKCLDALALVQSGSDSPKETEMRLTLVCYGLPIMQPNCVVPGVNFANGAAVTLDLVDAEHRFGLDYQGDHHRTDRAQYRRDQNKLSRLAAAGWTVFSVTQLDLSDELHRAAFAMNVAHALSSIVGRPIGVTTPLPWRKVVLRYRKARKLRLLD | not soluble
MGSDKIHHHHHHMLLHLSTWQEVEAYLQQSKGIIFPIGSTEQHGPTGLIGTDAICAEAIAAGVGDATGAIVGPTINVGMALHHTAFPGTISLRPSTLIQVVRDYVTCLAKAGFSKFYFINGHGGNIATLKAAFSETYAHLEDLQIANAQQVQCQVANWFMCGSVYKLAKELYGDQEGSHATPSEVALTQYVYPEAIKQAPLSPEVASGHRIYSAADFRVRYPDGRMGSNPGLATPEHGKQFYDLAVKELSNGYLEFVNAD | not soluble
